The series addresses dCas9 (SpCas9 D10A/H840A) D10A;H840A (Streptococcus pyogenes) (UniProt Q99ZW2). The experiment in a line: SPR. The note with it: SPR: PBS, 0.005% Tween-20, 25 C, BLI: PBS, 0.005% Tween-20, 1 mM MgCl2, 50 ug/ml heparin, SwitchSENSE: 20 mM Tris pH 7.4, 100 mM KCl, 5 mM MgCl2, 0.01% ….

As to “AGCACTGCACGCCGUAGGUCGUUUTAGAGCTATGCTGTTTTG [GFP cr1 crHyb with tracrRNA]”, for the setting “DNA with 7 RNA residues (1,15,16,19,22,23,24)”, the Kd (in general, the free concentration of one partner at which half of the binding sites on the other are occupied at equilibrium, for simple one-to-one binding) was under 1 nM.

With tracrRNA (88 nt), the dissociation constant (Kd) was found to be 6.2 nM (dCas9 immobilised, 1.2-100 nM titration) and 0.308 nM (dCas9 immobilised, kinetic 1:1 fit).

These data come from publication PMC5694763.
